Biological target: DENV capsid protein (DENVC) (Dengue virus 2 strain 16681, UniProt O09234 1-100)
Experiment: nephelometry (condensate formation); NaCl < 150 mM; diminished above; nonlabeled 25 mer
Conditions: protein: recombinant; chain copies: 2

**Q.** Does GGACAGGAAUUAAUAGUAGCUGUCC (ssDNA, printed with U although named ssDNA; chemistry ambiguous) [ssDNASel25 (Sel25 DNA, 25 mer)] bind?
**A.** Result: binds
